# Values of other authors, collected in article PMC8033747.
# Biological target: CHMP3 (Homo sapiens) (UniProt Q9Y3E7)
# Test: SPR
# CHMP3 (Homo sapiens), sequence (Q9Y3E7 2-222): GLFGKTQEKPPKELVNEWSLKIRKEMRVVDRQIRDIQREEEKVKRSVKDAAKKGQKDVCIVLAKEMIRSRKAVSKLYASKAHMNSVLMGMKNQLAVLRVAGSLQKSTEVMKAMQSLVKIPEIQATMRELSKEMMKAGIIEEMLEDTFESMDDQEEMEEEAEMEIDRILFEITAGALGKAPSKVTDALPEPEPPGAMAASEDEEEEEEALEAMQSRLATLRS
# CHMP2B, sequence (Q9UQN3 2-213): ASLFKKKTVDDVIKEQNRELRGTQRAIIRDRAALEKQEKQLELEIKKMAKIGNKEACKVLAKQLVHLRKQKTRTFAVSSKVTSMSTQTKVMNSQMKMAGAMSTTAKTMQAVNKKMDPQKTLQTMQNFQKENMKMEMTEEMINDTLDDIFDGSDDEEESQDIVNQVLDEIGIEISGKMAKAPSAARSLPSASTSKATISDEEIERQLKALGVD
# CHMP2A, sequence (O43633 whole entry): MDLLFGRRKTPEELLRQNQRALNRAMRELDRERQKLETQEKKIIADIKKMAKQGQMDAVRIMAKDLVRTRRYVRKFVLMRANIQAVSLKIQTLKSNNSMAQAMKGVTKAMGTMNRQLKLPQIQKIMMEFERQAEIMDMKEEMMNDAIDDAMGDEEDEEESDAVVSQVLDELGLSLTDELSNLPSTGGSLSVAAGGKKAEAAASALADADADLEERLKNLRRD
row,Kd [nM],Substance
1,1400,CHMP2B (from UniProt Q9UQN3)
2,3200,CHMP2A (from UniProt O43633)
